Reference: the supplement of paper PMC9170038

System: MS2 coat protein
Experiment: apparent KD of MS2 coat protein; designed switch direction (-1 OFF switch, 1 ON switch): -1; higher = weaker reporter binding
How it was run: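 Apparent KD, taken as the median over clusters for each design, was obtained by curve-fitting normalised cluster fluorescence. Designed RNA switches had been transcribed on Illumina chips by stalled E. coli RNA polymerase and titrated with SNAP-549-labelled MS2 coat protein, doubling from 0.7 or 1.5 nM to 3 µM.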

[1] = input ligand: microRNA oligo, concentration not stated
[2] = Eterna round: R95, input ligand: microRNA oligo, concentration not stated

Sequence	apparent KD of MS2 coat protein (input ligand: FMN 200 uM) [nM]	apparent KD of MS2 coat protein [1] [nM]	apparent KD of MS2 coat protein (input ligand: none) [nM]	apparent KD of MS2 coat protein (Eterna round: R95, input ligand: FMN 200 uM) [nM]	apparent KD of MS2 coat protein [2] [nM]	apparent KD of MS2 coat protein (Eterna round: R95, input ligand: none) [nM]
AGCUAGUGCCGAGGAUAUACAUGAGGAUCACCCAUGUAAGGCAGUCGGUUUCUGACUGCCAAUAUGUAGAAGGCGGCGUUGGCA [JL ENG2 1.48] (Eterna round: R96, puzzle: Exclusion NG 2)	45.4	15.8	15.7	–	–	–
CGUAAAAGGUAGGAUAUGCUAGACGAAAGUCUAGCAGAAGGACCUACAUGAGGAUCACCCAUGUGUCCAAUACG [Mat - Exclusion 6 - Eli Mod - D22] (Eterna round: R97, puzzle: Exclusion 6)	50.7	–	117	–	–	–
CACUUACAUGAGGAUCACCCAUGUGAGGAUAUCGUGACCUGACGAGAAGUCAAUGUCACGAGAAGGCACGUGGG [Exclusion 1 (Mod 3 solution 97 by Eternabot)] (Eterna round: R97, puzzle: Exclusion 1)	11.9	–	35.9	–	–	–
AGUACUAUGCGUGCUGACAUGCGUAGUGCAGCAGGUGUAACAUGAGGAUCACCCAUGUCCUCAUUUGCUCGUCUUAA [Mat - Sensor v3 - Turn-off var 2 - D13] (puzzle: Sensor v3, turn-off variant 2)	–	–	–	107	224	129
CCGCAGCGGUAGGAUAUUAUGACGUCAUGGGCAUAAGAAGGACCGACAUGAGGAUCACCCAUGUUGGGUGCCCG [EX6 C.24] (Eterna round: R97, puzzle: Exclusion 6)	33.7	–	21.7	–	–	–
UGUUGUUACGUAGGAUAUUGUCAACAGGCAGUAGGAUAUGCGAAAGCAGAAGGACCGCCAACAGGCGAGAAGGACGGGUUAACA [pwkr exNG2 2xF7 2xFMN.3] (Eterna round: R96, puzzle: Exclusion NG 2)	614	514	42.7	–	–	–
CCACGUCCGUACGUGUACUUGUCUCCUGUGUGCCCGGGUACAUGAGGAUCACCCAUGUCUGUGCUCGCCUUCUGCCC [JR_Sensorv2_tov2_Sub724] (Eterna round: R96, puzzle: Sensor v2, turn-off variant 2)	126	84.7	165	–	–	–
UGAUCAGACCGAGGAUAUACAUGGAGGACGCACGUGAGUGCGUCCACUACAUGAGGAUCACCCAUGUAGAAGGCGGUCUGAUCU [JL ENG2 1.92] (Eterna round: R96, puzzle: Exclusion NG 2)	1100	130	144	–	–	–
CGUCUGUAAGGAUAUGGUUGCAUCAACAUGAGGAUCACCCAUGUAACAUGGGACUAGUGAUUAGAAGGUACGAACG [EX5 #58] (Eterna round: R97, puzzle: Exclusion 5)	156	–	142	–	–	–
AGUAGGAGAGGAUAUACGAAGUCAAAAGACUUCGAUCCUCAACAUGAGGAUCACCCAUGUAGAAGGCUCCUACA [Omei Ex2 BD A1] (Eterna round: R97, puzzle: Exclusion 2)	166	–	154	–	–	–
GAGUGACAUGAGGAUCACCCAUGUGAGGAUAUCGGCCGGACCUUGUUAGCUUCCACCGCGAGAAGGCACAUCGG [Exclusion 1 V29] (puzzle: Exclusion 1)	–	–	–	–	20.3	–
UUGAUUCAUUCCUCCAUAAACAUGAGGAUCACCCAUGUAAGUGAGGAUAUAGUUGGAGUAGUAUACUAGAAGGCACUUAGAUAU [JR_ExcNG3_Sub047] (Eterna round: R96, puzzle: Exclusion NG 3)	–	8.77	–	–	–	–
